T1: BabAgo (short pAgo subunit of BabSPARTA);BabTIR-APAZ (subunit of BabSPARTA) (Bacillales bacterium;Bacillales …, UniProt PDB:8QLP_2;PDB:8QLP_1 1-507;1-452, |)
T1 sequence 1: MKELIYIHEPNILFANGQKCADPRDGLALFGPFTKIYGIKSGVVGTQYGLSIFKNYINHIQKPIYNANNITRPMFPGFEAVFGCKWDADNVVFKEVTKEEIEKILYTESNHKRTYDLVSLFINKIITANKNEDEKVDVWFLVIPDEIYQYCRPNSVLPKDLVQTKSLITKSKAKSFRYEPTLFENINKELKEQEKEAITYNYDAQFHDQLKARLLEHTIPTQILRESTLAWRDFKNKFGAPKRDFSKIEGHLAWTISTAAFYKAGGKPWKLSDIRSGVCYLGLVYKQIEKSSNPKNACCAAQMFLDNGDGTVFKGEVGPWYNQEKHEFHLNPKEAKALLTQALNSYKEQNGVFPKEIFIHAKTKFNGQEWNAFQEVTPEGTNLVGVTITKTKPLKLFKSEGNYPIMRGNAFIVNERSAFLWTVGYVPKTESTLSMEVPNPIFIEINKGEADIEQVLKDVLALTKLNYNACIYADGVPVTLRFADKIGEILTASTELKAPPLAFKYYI
T1 sequence 2: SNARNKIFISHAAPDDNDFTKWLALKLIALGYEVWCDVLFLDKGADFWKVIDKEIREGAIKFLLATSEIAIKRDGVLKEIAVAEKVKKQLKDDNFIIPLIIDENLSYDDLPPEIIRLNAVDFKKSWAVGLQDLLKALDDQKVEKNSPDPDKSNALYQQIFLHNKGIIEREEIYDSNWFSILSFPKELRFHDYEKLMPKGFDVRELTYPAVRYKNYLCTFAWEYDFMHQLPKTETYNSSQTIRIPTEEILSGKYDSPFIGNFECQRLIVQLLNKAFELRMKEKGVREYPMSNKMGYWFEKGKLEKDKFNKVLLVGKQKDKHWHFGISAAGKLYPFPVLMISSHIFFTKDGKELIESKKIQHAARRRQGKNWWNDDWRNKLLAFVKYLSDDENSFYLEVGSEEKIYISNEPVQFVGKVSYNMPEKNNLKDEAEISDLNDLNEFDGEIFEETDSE

B1: guide RNA oBK084 / target DNA oBK382 (DNA:RNA)
RNA: UGACGGCUCUAAUCUAUUAGU
DNA: CAACTAATAGATTAGAGCCGTCAAT
modifications: 5'-phosphate on guide RNA

Key:
[1] = target: BabSPARTA complex (BabAgo:BabTIR-APAZ heterodimer) (Bacillales bacterium); assay: cryo-EM structure
[2] = target: T1, BabAgo (short pAgo subunit of …); assay: cryo-EM structure

Molecule | stoichiometry N [1] | binding result [2]
BabSPARTA complex (BabAgo:BabTIR-APAZ heterodimer) | 4 | –
B1 | – | binds

Reference: PMC10899771
